In paper PMC5127646 (2016):

B1: SmN peptide, residues 219-229 (GMRPPPPGIRG) [human] / RBM5 OCRE domain (residues 451-511), wild type [human] (parent complex)
chain 1: GMRPPPPGIRG
chain 2: GAMGTKYAVPDTSTYQYDESSGYYYDPTTGLYYDPNSQYYYNSLTQQYLYWDGEKETYVPAAES

Variants of: B1
Assay: NMR titration (chemical shift perturbation score); 1:10 ratio of OCRE:peptide; read off a plot

ratio to parent	Variant
~0.27	chain 1 P4A, chain 1 P6A
~0.51	chain 1 R3A
~0.19	chain 1 R3E
~0.05	chain 1 R3E, chain 1 R10E
~0.24	chain 1 R3A, chain 1 R10A
~0.67	chain 1 R10A
~0.54	chain 1 R10E
